In the supplement of paper PMC10065799, “High-throughput profiling of sequence recognition by tyrosine kinases and SH2 domains using bacterial peptide display” (eLife, 2023):

molecular target: Fyn (UniProt P06241); experiment: phosphorylation enrichment, bacterial display (enrichment ratio); higher = better substrate or ligand; peptides without Tyr show the background
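Further: 11-residue human phosphosite peptides and single-mutation variants displayed on the E. coli surface, counted by deep sequencing, each peptide's frequency after selection divided by its frequency in the unselected input library; frequency after pTyr selection over input frequency; kinase dosed for 20-30% of maximal phosphorylation in three min.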

Fyn, sequence (P06241 whole entry, looked up): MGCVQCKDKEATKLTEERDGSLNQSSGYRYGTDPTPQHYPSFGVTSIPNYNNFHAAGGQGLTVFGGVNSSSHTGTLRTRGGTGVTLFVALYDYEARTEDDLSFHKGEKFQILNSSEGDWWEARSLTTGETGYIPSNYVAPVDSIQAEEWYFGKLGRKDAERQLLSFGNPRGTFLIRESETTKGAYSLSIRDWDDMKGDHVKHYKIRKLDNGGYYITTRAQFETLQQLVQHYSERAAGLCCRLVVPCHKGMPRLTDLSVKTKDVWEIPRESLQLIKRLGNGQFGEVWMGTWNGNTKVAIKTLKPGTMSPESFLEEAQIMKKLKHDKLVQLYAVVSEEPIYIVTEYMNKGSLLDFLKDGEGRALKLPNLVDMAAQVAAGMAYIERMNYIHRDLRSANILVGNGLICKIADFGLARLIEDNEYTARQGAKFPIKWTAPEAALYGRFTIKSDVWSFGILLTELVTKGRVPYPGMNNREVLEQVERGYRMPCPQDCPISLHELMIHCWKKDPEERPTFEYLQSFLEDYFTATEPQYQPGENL

Sequence	phosphorylation enrichment
ALTDNYMYVVI [HAGH_Y61_L64V]	1.04
FDGKDYIALKE [HLA-A_Y147_N151K_YF]	0.376
SAVTGYRVNVI [FN1_Y937_D940N]	0.403
TLSGTYQYIIA [FOXL2_Y81_I80T]	1.06
CTNIHYNYMCN [TP53_Y234_T231N]	0.464
PLTKVYVVEGS [ZMPSTE24_Y253]	0.494
SDGKRYRVPSD [HHIPL2_Y395_H391D]	0.338
LFMGDYVGRGY [PPP2CA_Y86_D88G]	1.37
LFLACYCIGGG [UBD_Y161]	0.72
FFCRWYRNQKS [EREG_Y144_R147Q_YF]	0.482
EEQKKYYNAMK [SCN5A_Y1494]	0.458
YQRITYHNWRH [PDE6B_Y556_R552Q]	0.446
QLQVFYATRDQ [MIPEP_Y579_L582R]	0.881
LSRDVYEEDSY [RET_Y900]	0.503
CTTIHYFFMCN [TP53_Y234_N235Y_YF]	0.424
GKMSSYAFFVQ [HMGB1_Y16]	0.505
ETEMLYGSAPR [PRC1_Y464]	6.44

Sequence	phosphorylation enrichment
TVEDHYFEGGI [TKT_Y563_YF]	0.519
GTFVIYVRFSG [FLNB_Y1687_G1691S_YF]	0.426
PVDTFYDSTRG [DYNC2H1_Y2231_M2227V_YF]	0.671
GQKVAYGGTED [ALDH3A1_Y305_G309E]	0.438
SLRAHYDTPRS [DOK7_Y405]	0.349
GEYYRYLAEVA [YWHAG_Y133_D129E]	1.52
TVLWWYTGTRP [UGT1A1_Y337_R336W]	0.4
PGAPAYCVLME [MYO5A_Y1245_R1246C]	1.12
LGIDRYHAIVF [NPSR1_Y147_S143G_YF]	0.732
GLSSAYGDLTS [KRT8_Y427_G429D]	0.454
PVKSEYPSIKL [NPC2_Y119]	0.509
GQECEYPPTQD [METAP2_Y137]	0.534
KVPELYEIHTE [BCR_Y554_K558T]	0.629
IGHHAYGDQFR [IDH1_Y135_R132H_YF]	0.346
VREIRYQGGNR [VWF_Y1570]	0.421
TDECEYDELIV [TGM1_Y136_Y134C]	2.06

tested on: c-Src; experiment: as above

Sequence	phosphorylation enrichment
ALTDNYMYVVI [HAGH_Y61_L64V]	1.12
FDGKDYIALKE [HLA-A_Y147_N151K_YF]	0.489
SAVTGYRVNVI [FN1_Y937_D940N]	0.386
TLSGTYQYIIA [FOXL2_Y81_I80T]	1.17
CTNIHYNYMCN [TP53_Y234_T231N]	0.408
PLTKVYVVEGS [ZMPSTE24_Y253]	0.554
SDGKRYRVPSD [HHIPL2_Y395_H391D]	0.384
LFMGDYVGRGY [PPP2CA_Y86_D88G]	1.53
LFLACYCIGGG [UBD_Y161]	0.545
FFCRWYRNQKS [EREG_Y144_R147Q_YF]	0.57
EEQKKYYNAMK [SCN5A_Y1494]	0.384
YQRITYHNWRH [PDE6B_Y556_R552Q]	0.486
QLQVFYATRDQ [MIPEP_Y579_L582R]	0.977
LSRDVYEEDSY [RET_Y900]	0.719
CTTIHYFFMCN [TP53_Y234_N235Y_YF]	0.279
GKMSSYAFFVQ [HMGB1_Y16]	0.562
ETEMLYGSAPR [PRC1_Y464]	5.25

Sequence	phosphorylation enrichment
TVEDHYFEGGI [TKT_Y563_YF]	0.472
GTFVIYVRFSG [FLNB_Y1687_G1691S_YF]	0.539
PVDTFYDSTRG [DYNC2H1_Y2231_M2227V_YF]	0.671
GQKVAYGGTED [ALDH3A1_Y305_G309E]	0.412
SLRAHYDTPRS [DOK7_Y405]	0.298
GEYYRYLAEVA [YWHAG_Y133_D129E]	2.34
TVLWWYTGTRP [UGT1A1_Y337_R336W]	0.311
PGAPAYCVLME [MYO5A_Y1245_R1246C]	0.964
LGIDRYHAIVF [NPSR1_Y147_S143G_YF]	1.11
GLSSAYGDLTS [KRT8_Y427_G429D]	0.464
PVKSEYPSIKL [NPC2_Y119]	0.364
GQECEYPPTQD [METAP2_Y137]	0.563
KVPELYEIHTE [BCR_Y554_K558T]	0.546
IGHHAYGDQFR [IDH1_Y135_R132H_YF]	0.373
VREIRYQGGNR [VWF_Y1570]	0.495
TDECEYDELIV [TGM1_Y136_Y134C]	0.529

tested on: AncSZ; experiment: as above

Sequence	phosphorylation enrichment
ALTDNYMYVVI [HAGH_Y61_L64V]	1.92
FDGKDYIALKE [HLA-A_Y147_N151K_YF]	0.952
SAVTGYRVNVI [FN1_Y937_D940N]	0.633
TLSGTYQYIIA [FOXL2_Y81_I80T]	1.05
CTNIHYNYMCN [TP53_Y234_T231N]	0.754
PLTKVYVVEGS [ZMPSTE24_Y253]	0.814
SDGKRYRVPSD [HHIPL2_Y395_H391D]	0.555
LFMGDYVGRGY [PPP2CA_Y86_D88G]	1.53
LFLACYCIGGG [UBD_Y161]	1.22
FFCRWYRNQKS [EREG_Y144_R147Q_YF]	0.775
EEQKKYYNAMK [SCN5A_Y1494]	0.67
YQRITYHNWRH [PDE6B_Y556_R552Q]	0.59
QLQVFYATRDQ [MIPEP_Y579_L582R]	1.27
LSRDVYEEDSY [RET_Y900]	1.39
CTTIHYFFMCN [TP53_Y234_N235Y_YF]	0.966
GKMSSYAFFVQ [HMGB1_Y16]	1.01
ETEMLYGSAPR [PRC1_Y464]	0.889

Sequence	phosphorylation enrichment
TVEDHYFEGGI [TKT_Y563_YF]	1.1
GTFVIYVRFSG [FLNB_Y1687_G1691S_YF]	1.17
PVDTFYDSTRG [DYNC2H1_Y2231_M2227V_YF]	0.973
GQKVAYGGTED [ALDH3A1_Y305_G309E]	0.747
SLRAHYDTPRS [DOK7_Y405]	0.428
GEYYRYLAEVA [YWHAG_Y133_D129E]	2.12
TVLWWYTGTRP [UGT1A1_Y337_R336W]	1.3
PGAPAYCVLME [MYO5A_Y1245_R1246C]	1.64
LGIDRYHAIVF [NPSR1_Y147_S143G_YF]	2.59
GLSSAYGDLTS [KRT8_Y427_G429D]	0.718
PVKSEYPSIKL [NPC2_Y119]	0.456
GQECEYPPTQD [METAP2_Y137]	1.34
KVPELYEIHTE [BCR_Y554_K558T]	1.19
IGHHAYGDQFR [IDH1_Y135_R132H_YF]	0.63
VREIRYQGGNR [VWF_Y1570]	0.597
TDECEYDELIV [TGM1_Y136_Y134C]	1.41

molecular target: MERTK (UniProt Q12866); experiment: as above
Sequence (Q12866 whole entry, looked up): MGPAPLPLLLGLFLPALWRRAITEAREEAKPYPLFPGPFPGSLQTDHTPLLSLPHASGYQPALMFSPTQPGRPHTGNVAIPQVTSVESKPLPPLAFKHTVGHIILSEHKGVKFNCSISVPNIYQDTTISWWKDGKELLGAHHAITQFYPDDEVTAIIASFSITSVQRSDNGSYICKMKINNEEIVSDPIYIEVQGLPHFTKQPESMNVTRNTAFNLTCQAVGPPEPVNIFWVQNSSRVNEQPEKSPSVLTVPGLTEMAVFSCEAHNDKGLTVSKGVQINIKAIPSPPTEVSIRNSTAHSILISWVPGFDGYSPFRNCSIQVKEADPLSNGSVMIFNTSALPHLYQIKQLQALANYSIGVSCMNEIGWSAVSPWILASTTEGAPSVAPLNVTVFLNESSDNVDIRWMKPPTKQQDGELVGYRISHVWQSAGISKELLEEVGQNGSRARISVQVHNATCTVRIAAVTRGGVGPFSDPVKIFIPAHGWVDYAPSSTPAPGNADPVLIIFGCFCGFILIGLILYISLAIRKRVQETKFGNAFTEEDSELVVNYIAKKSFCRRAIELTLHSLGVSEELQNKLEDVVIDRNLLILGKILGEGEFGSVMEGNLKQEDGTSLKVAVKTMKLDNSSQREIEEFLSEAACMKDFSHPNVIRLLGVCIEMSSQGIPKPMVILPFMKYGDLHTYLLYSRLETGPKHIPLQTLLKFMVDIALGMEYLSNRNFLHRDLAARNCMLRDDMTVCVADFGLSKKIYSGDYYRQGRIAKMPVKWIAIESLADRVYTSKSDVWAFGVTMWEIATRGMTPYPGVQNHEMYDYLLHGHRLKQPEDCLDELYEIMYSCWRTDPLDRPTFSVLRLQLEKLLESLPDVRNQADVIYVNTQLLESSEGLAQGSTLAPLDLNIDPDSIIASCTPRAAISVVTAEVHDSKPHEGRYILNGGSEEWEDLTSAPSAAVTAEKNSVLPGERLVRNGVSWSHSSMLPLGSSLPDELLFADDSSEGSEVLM

Sequence	phosphorylation enrichment
ALTDNYMYVVI [HAGH_Y61_L64V]	4.21
FDGKDYIALKE [HLA-A_Y147_N151K_YF]	0.406
SAVTGYRVNVI [FN1_Y937_D940N]	0.359
TLSGTYQYIIA [FOXL2_Y81_I80T]	7.42
CTNIHYNYMCN [TP53_Y234_T231N]	0.418
PLTKVYVVEGS [ZMPSTE24_Y253]	0.418
SDGKRYRVPSD [HHIPL2_Y395_H391D]	0.409
LFMGDYVGRGY [PPP2CA_Y86_D88G]	0.847
LFLACYCIGGG [UBD_Y161]	0.483
FFCRWYRNQKS [EREG_Y144_R147Q_YF]	0.497
EEQKKYYNAMK [SCN5A_Y1494]	0.355
YQRITYHNWRH [PDE6B_Y556_R552Q]	0.482
QLQVFYATRDQ [MIPEP_Y579_L582R]	0.567
LSRDVYEEDSY [RET_Y900]	0.699
CTTIHYFFMCN [TP53_Y234_N235Y_YF]	0.309
GKMSSYAFFVQ [HMGB1_Y16]	1.29
ETEMLYGSAPR [PRC1_Y464]	0.414

Sequence	phosphorylation enrichment
TVEDHYFEGGI [TKT_Y563_YF]	0.444
GTFVIYVRFSG [FLNB_Y1687_G1691S_YF]	0.472
PVDTFYDSTRG [DYNC2H1_Y2231_M2227V_YF]	0.404
GQKVAYGGTED [ALDH3A1_Y305_G309E]	0.417
SLRAHYDTPRS [DOK7_Y405]	0.319
GEYYRYLAEVA [YWHAG_Y133_D129E]	1.73
TVLWWYTGTRP [UGT1A1_Y337_R336W]	0.277
PGAPAYCVLME [MYO5A_Y1245_R1246C]	4.03
LGIDRYHAIVF [NPSR1_Y147_S143G_YF]	1.52
GLSSAYGDLTS [KRT8_Y427_G429D]	0.413
PVKSEYPSIKL [NPC2_Y119]	0.465
GQECEYPPTQD [METAP2_Y137]	0.525
KVPELYEIHTE [BCR_Y554_K558T]	0.508
IGHHAYGDQFR [IDH1_Y135_R132H_YF]	0.397
VREIRYQGGNR [VWF_Y1570]	0.522
TDECEYDELIV [TGM1_Y136_Y134C]	0.604
